Measured values reported in patent US20160264662A1 (US Dept. of Health and Human Services, published 2016).
Where a chain is given by its changes, count along the chain named.

T1: recombinant human TEM8 ectodomain (human, UniProt Q9H6X2 33-321)
T1 construct: also called TEM8-ED; Tumor Endothelial Marker 8
T1 sequence: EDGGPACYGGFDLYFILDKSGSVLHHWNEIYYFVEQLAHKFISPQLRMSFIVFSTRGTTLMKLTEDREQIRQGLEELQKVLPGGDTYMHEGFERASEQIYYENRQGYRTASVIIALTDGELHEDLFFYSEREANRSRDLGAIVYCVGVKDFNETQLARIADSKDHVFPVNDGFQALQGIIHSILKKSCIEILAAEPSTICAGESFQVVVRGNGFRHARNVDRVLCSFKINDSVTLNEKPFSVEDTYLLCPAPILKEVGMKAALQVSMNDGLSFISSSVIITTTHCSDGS

B1: m825-MMAE conjugate (m825 antibody in human IgG1 format conjugated to MMAE) (other)
VH: QVQLVQSGAEVKKPGTSVKVSCKVPGYTFSSYAISWVRQAPGQGLEWMGGIIPIFGTTNYAQKFQGRVTITGEESTSTVYMELSSLRSEDTAVYYCARDTDYMFDYWGQGTLVTVSS
VL: SSELTQDPVVSVALGETVSITCQGDNLRDFYASWYQQKPGQAPLLVMYGKNRRPSGIPDRFSGSTSGNTLSLTITGAQAEDEADYYCSSRDNSKHVVFGGGTKVTVL
modifications: MMAE with stretcher unit, Val-Cit peptide cleavage site and spacer, attached to thiol groups formed by partial reduction of inter-chain disulfide bonds (positions not stated)
notes: also called anti-TEM8-MMAE
B2: m825 antibody in human IgG1 format (antibody, V domains shown)
VH: B1 VH
VL: B1 VL
notes: also called m825 mAb; human m825-IgG1
B3: m822 antibody in human IgG1 format (antibody, V domains shown)
VH: B1 VH with T16A, P25S, T58A, G72A, E73D, V79A
VL: B1 VL
notes: also called m822 mAb
B4: m830 antibody in human IgG1 format (antibody, V domains shown)
VH: EVQLVESGGGVVQPGRSVRLSCAASGFTFSTYTMHWVRQAPGKGLEWVAIISNDGSNKYYADPVRGRFTISRDNSKNTLYLQMNSLRAEDTAVYYCVRGSSWYRGNWFDPWGQGTLVTVSS
VL: DIQMTQSPSSLSASVGDRVTIACRASQTISRYLNWYQQKPGKAPKLLIYAASSLQSGVSSRFSGSGSGTEFTLTISSLQPEDFATYFCQQTYSPPITFGQGTRLEIKR
notes: also called m830 mAb; human m830-IgG1
B5: m863 antibody in human IgG1 format (antibody, V domains shown)
VH: EVQLVETGAEVKKPGASVKVSCKASGYTFTGYYMHWVRQAPGQGLEWMGWINPTSGSTNYAQKFQGRVTMTRDTSISTAYMELSGLRSDDTAVYYCVRDPGSPKWLAFDPWGQGTLVTVSS
VL: B4 VL with M4L, A22T, Q27R, T28A
notes: also called m863 mAb

Legend:
[1] = target: recombinant TEM8 (AP-TEM8); assay: ELISA-type titration of m825-MMAE on recombinant AP-TEM8; absorbance at 450 nm against Log (ng/well)
[2] = target: T1, recombinant human TEM8 ectodomain; assay: SPR (Biacore), antibody in IgG1 format, recombinant human TEM8 ectodomain; apparent KD
[3] = target: T2, human CMG2 (hCMG2) expressed on CHO or 293 cells (human, UniProt P58335 34-489); assay: flow cytometry (FACS), CHO cells expressing hCMG2 against parental CHO
T2 construct: whole, on cells; also called ANTXR2
T2 sequence (P58335 34-489): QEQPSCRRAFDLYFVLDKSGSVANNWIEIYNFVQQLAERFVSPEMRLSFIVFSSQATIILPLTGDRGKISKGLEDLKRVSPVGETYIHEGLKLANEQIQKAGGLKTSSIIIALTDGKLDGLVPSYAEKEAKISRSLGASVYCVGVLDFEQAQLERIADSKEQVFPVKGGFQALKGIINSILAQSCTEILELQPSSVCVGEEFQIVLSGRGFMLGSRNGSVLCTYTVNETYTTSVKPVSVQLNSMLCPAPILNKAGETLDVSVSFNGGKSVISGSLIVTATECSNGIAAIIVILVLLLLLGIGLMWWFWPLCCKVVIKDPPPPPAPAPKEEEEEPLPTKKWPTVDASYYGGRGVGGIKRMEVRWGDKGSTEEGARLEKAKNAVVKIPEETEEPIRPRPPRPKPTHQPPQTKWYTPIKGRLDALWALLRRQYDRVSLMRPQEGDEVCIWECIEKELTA

293 mCMG2 = target: T3, 293 mCMG2 (mouse, UniProt Q6DFX2); assay: flow cytometry (FACS), 293 cells expressing mCMG2 against parental 293
T3 construct: expressed on human embryonic kidney 293 cells; also called mouse CMG2; mouse ANTXR2 expressed on 293 cells
T3 sequence (Q6DFX2 32-487 limits assumed): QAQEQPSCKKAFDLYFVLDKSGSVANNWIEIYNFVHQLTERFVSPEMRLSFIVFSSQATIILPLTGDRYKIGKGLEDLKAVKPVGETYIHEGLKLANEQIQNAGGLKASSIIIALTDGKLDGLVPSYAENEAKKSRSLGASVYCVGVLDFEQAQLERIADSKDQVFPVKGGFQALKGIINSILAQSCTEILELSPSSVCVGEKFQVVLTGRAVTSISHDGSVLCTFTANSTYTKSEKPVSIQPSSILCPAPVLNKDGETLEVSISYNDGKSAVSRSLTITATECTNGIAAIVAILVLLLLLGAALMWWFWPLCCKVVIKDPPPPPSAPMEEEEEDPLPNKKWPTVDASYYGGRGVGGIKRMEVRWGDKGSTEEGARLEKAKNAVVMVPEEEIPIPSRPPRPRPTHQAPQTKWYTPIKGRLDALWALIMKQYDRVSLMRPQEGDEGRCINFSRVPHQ

Binder | EC50 (read off the curve) [1] [ng/well] | Kd [2] [nM] | binding result [3] | binding result (293 mCMG2)
B1 | ~0.5 | – | – | –
B2 | – | 0.034 | – | –
B3 | – | 35 | – | –
B4 | – | 12 | no binding | no binding
B5 | – | 1.2 | no binding | no binding
